Test results reported in doi:10.1101/153403.

What was measured:
[1] = target: myostatin pro-domain of the HRV-3C cleaved pro-myostatin complex (from proMSTN-3C) (human); test: SEC-MALS
[2] = target: mature myostatin growth factor dimer (from HRV-3C cleaved proMSTN-3C) (human) (UniProt O14793); test: SEC-MALS

With “mature myostatin growth factor dimer (from HRV-3C cleaved proMSTN-3C) (from UniProt O14793 267-375) (ligand)” the stoichiometry N (pro-domains per mature GF dimer) [1] was 2 and the stoichiometry N [2] was 2.
